Experiments:
[1] = system: HeLa Kyoto; assay: solubility in G1/S (NP-40 vs SDS abundance) (log2 ratio); higher = more soluble; details: cell cycle stage: G1/S
[2] = system: HeLa Kyoto; assay: melting temperature (median over replicates), in situ; higher = more thermally stable
[3] = system: HeLa Kyoto; assay: solubility change mitosis vs G1/S (difference of NP-40 vs SDS log2 ratios) (log2 ratio difference); higher = more soluble in mitosis
[4] = system: HeLa Kyoto; assay: thermal stability score vs G1/S (z-score of summed log2 fold changes over temperatures); higher = more thermally stable than in G1/S
[5] = cell cycle stage: early G1 (4.5 h after nocodazole release)
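Throughout, for melting temperature (median over replicates), in situ: HeLa Kyoto cells synchronized by double thymidine or nocodazole block, proteins quantified by TMT10plex mass spectrometry, three independent biological replicates.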
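Throughout, for solubility change mitosis vs G1/S (difference of NP-40 vs SDS log2 ratios): synchronized HeLa Kyoto cells (double thymidine block for G1/S, nocodazole release for mitosis), protein amounts in NP-40 versus SDS lysates quantified by mass spectrometry, three biological replicates.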
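Throughout, for solubility in G1/S (NP-40 vs SDS abundance): HeLa Kyoto cells arrested at G1/S by double thymidine block, proteins quantified by TMT10plex mass spectrometry in mild NP-40 versus SDS extracts, three biological replicates.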
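Throughout, for thermal stability score vs G1/S (z-score of summed log2 fold changes over temperatures): synchronized HeLa Kyoto cells, proteins quantified by TMT10plex mass spectrometry, three biological replicates, mitosis taken 0.5 h after nocodazole release, G1/S directly after double thymidine block.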

Sequence	solubility in G1/S (log2) [1]	melting temperature ([2]; cell cycle stage: G1/S) [°C]	melting temperature ([2]; cell cycle stage: mitosis) [°C]	solubility change mitosis (log2) [3]	thermal stability score [4, 5]	thermal stability score ([4]; cell cycle stage: mitosis)
MTECFLPPTSSPSEHRRVEHGSGLTRTPSSEEISPTKFPGLYRTGEPSPPHDILHEPPDVVSDDEKDHGKKKGKFKKKEKRTEGYAAFQEDSSGDEAESPSKMKRSKGIHVFKKPSFSKKKEKDFKIKEKPKEEKHKEEKHKEEKHKEKKSKDLTAADVVKQWKEKKKKKKPIQEPEVPQIDVPNLKPIFGIPLADAVERTMMYDGIRLPAVFRECIDYVEKYGMKCEGIYRVSGIKSKVDELKAAYDREESTNLEDYEPNTVASLLKQYLRDLPENLLTKELMPRFEEACGRTTETEKVQEFQRLLKELPECNYLLISWLIVHMDHVIAKELETKMNIQNISIVLSPTVQISNRVLYVFFTHVQELFGNVVLKQVMKPLRWSNMATMPTLPETQAGIKEEIRRQEFLLNCLHRDLQGGIKDLSKEERLWEVQRILTALKRKLREAKRQECETKIAQEIASLSKEDVSKEEMNENEEVINILLAQENEILTEQEELLAMEQFLRRQIASEKEEIERLRAEIAEIQSRQQHGRSETEEYSSESESESEDEEELQIILEDLQRQNEELEIKNNHLNQAIHEEREAIIELRVQLRLLQMQRAKAEQQAQEDEEPEWRGGAVQPPRDGVLEPKAAKEQPKAGKEPAKPSPSRDRKETSI [RALBP1]	0.0284	47.8	50.4	0.12	0.156	0.441
MTERFDCHHCNESLFGKKYILREESPYCVVCFETLFANTCEECGKPIGCDCKDLSYKDRHWHEACFHCSQCRNSLVDKPFAAKEDQLLCTDCYSNEYSSKCQECKKTIMPGTRKMEYKGSSWHETCFICHRCQQPIGTKSFIPKDNQNFCVPCYEKQHAMQCVQCKKPITTGGVTYREQPWHKECFVCTACRKQLSGQRFTARDDFAYCLNCFCDLYAKKCAGCTNPISGLGGTKYISFEERQWHNDCFNCKKCSLSLVGRGFLTERDDILCPDCGKDI [FHL2]	-0.304	52	51.9	-0.0906	-1.09	-1.97
MTGNAGEWCLMESDPGVFTELIKGFGCRGAQVEEIWSLEPENFEKLKPVHGLIFLFKWQPGEEPAGSVVQDSRLDTIFFAKQVINNACATQAIVSVLLNCTHQDVHLGETLSEFKEFSQSFDAAMKGLALSNSDVIRQVHNSFARQQMFEFDTKTSAKEEDAFHFVSYVPVNGRLYELDGLREGPIDLGACNQDDWISAVRPVIEKRIQKYSEGEIRFNLMAIVSDRKMIYEQKIAELQRQLAEEEPMDTDQGNSMLSAIQSEVAKNQMLIEEEVQKLKRYKIENIRRKHNYLPFIMELLKTLAEHQQLIPLVEKAKEKQNAKKAQETK [UCHL5]	0.533	48.7	48.9	-0.0948	1.19	2.51
MTGQGQSASGSSAWSTVFRHVRYENLIAGVSGGVLSNLALHPLDLVKIRFAVSDGLELRPKYNGILHCLTTIWKLDGLRGLYQGVTPNIWGAGLSWGLYFFFYNAIKSYKTEGRAERLEATEYLVSAAEAGAMTLCITNPLWVTKTRLMLQYDAVVNSPHRQYKGMFDTLVKIYKYEGVRGLYKGFVPGLFGTSHGALQFMAYELLKLKYNQHINRLPEAQLSTVEYISVAALSKIFAVAATYPYQVVRARLQDQHMFYSGVIDVITKTWRKEGVGGFYKGIAPNLIRVTPACCITFVVYENVSHFLLDLREKRK [SLC25A32]	-0.199	56.8	56.7	-0.12	-0.577	0.155
MTGSNSHITILTLKVLPHFESLGKQEKIPNKMSAFRNHCPHLDSVGEITKEDLIQKSLGTCQDCKVQGPNLWACLENRCSYVGCGESQVDHSTIHSQETKHYLTVNLTTLRVWCYACSKEVFLDRKLGTQPSLPHVRQPHQIQENSVQDFKIPSNTTLKTPLVAVFDDLDIEADEEDELRARGLTGLKNIGNTCYMNAALQALSNCPPLTQFFLDCGGLARTDKKPAICKSYLKLMTELWHKSRPGSVVPTTLFQGIKTVNPTFRGYSQQDAQEFLRCLMDLLHEELKEQVMEVEEDPQTITTEETMEEDKSQSDVDFQSCESCSNSDRAENENGSRCFSEDNNETTMLIQDDENNSEMSKDWQKEKMCNKINKVNSEGEFDKDRDSISETVDLNNQETVKVQIHSRASEYITDVHSNDLSTPQILPSNEGVNPRLSASPPKSGNLWPGLAPPHKKAQSASPKRKKQHKKYRSVISDIFDGTIISSVQCLTCDRVSVTLETFQDLSLPIPGKEDLAKLHSSSHPTSIVKAGSCGEAYAPQGWIAFFMEYVKRFVVSCVPSWFWGPVVTLQDCLAAFFARDELKGDNMYSCEKCKKLRNGVKFCKVQNFPEILCIHLKRFRHELMFSTKISTHVSFPLEGLDLQPFLAKDSPAQIVTYDLLSVICHHGTASSGHYIAYCRNNLNNLWYEFDDQSVTEVSESTVQNAEAYVLFYRKSSEEAQKERRRISNLLNIMEPSLLQFYISRQWLNKFKTFAEPGPISNNDFLCIHGGVPPRKAGYIEDLVLMLPQNIWDNLYSRYGGGPAVNHLYICHTCQIEAEKIEKRRKTELEIFIRLNRAFQKEDSPATFYCISMQWFREWESFVKGKDGDPPGPIDNTKIAVTKCGNVMLRQGADSGQISEETWNFLQSIYGGGPEVILRPPVVHVDPDILQAEEKIEVETRSL [USP33]	-0.427	51.5	51	-0.00182	1.09	2.47
MTHSLVCPETVSRVSSVLNRNTRQFGKKHLFDQDEETCWNSDQGPSQWVTLEFPQLIRVSQLQIQFQGGFSSRRGCLEGSQGTQALHKIVDFYPEDNNSLQTFPIPAAEVDRLKVTFEDATDFFGRVVIYHLRVLGEKV [NR2C2AP]	0.195	53.3	52.8	-0.238	0.143	-0.215
MTLEAIRYSRGSLQILDQLLLPKQSRYEAVGSVHQAWEAIRAMKVRGAPAIALVGCLSLAVELQAGAGGPGLAALVAFVRDKLSFLVTARPTAVNMARAARDLADVAAREAEREGATEEAVRERVICCTEDMLEKDLRDNRSIGDLGARHLLERVAPSGGKVTVLTHCNTGALATAGYGTALGVIRSLHSLGRLEHAFCTETRPYNQGARLTAFELVYEQIPATLITDSMVAAAMAHRGVSAVVVGADRVVANGDTANKVGTYQLAIVAKHHGIPFYVAAPSSSCDLRLETGKEIIIEERPGQELTDVNGVRIAAPGIGVWNPAFDVTPHDLITGGIITELGVFAPEELRTALTTTISSRDGTLDGPQM [MRI1]	0.21	52.5	52.4	-0.154	-0.841	-0.966
MTLTERLREKISRAFYNHGLLCASYPIPIILFTGFCILACCYPLLKLPLPGTGPVEFTTPVKDYSPPPVDSDRKQGEPTEQPEWYVGAPVAYVQQIFVKSSVFPWHKNLLAVDVFRSPLSRAFQLVEEIRNHVLRDSSGIRSLEELCLQVTDLLPGLRKLRNLLPEHGCLLLSPGNFWQNDWERFHADPDIIGTIHQHEPKTLQTSATLKDLLFGVPGKYSGVSLYTRKRMVSYTITLVFQHYHAKFLGSLRARLMLLHPSPNCSLRAESLVHVHFKEEIGVAELIPLVTTYIILFAYIYFSTRKIDMVKSKWGLALAAVVTVLSSLLMSVGLCTLFGLTPTLNGGEIFPYLVVVIGLENVLVLTKSVVSTPVDLEVKLRIAQGLSSESWSIMKNMATELGIILIGYFTLVPAIQEFCLFAVVGLVSDFFLQMLFFTTVLSIDIRRMELADLNKRLPPEACLPSAKPVGQPTRYERQLAVRPSTPHTITLQPSSFRNLRLPKRLRVVYFLARTRLAQRLIMAGTVVWIGILVYTDPAGLRNYLAAQVTEQSPLGEGALAPMPVPSGMLPPSHPDPAFSIFPPDAPKLPENQTSPGESPERGGPAEVVHDSPVPEVTWGPEDEELWRKLSFRHWPTLFSYYNITLAKRYISLLPVIPVTLRLNPREALEGRHPQDGRSAWPPPGPIPAGHWEAGPKGPGGVQAHGDVTLYKVAALGLATGIVLVLLLLCLYRVLCPRNYGQLGGGPGRRRRGELPCDDYGYAPPETEIVPLVLRGHLMDIECLASDGMLLVSCCLAGHVCVWDAQTGDCLTRIPRPGRQRRDSGVGSGLEAQESWERLSDGGKAGPEEPGDSPPLRHRPRGPPPPSLFGDQPDLTCLIDTNFSAQPRSSQPTQPEPRHRAVCGRSRDSPGYDFSCLVQRVYQEEGLAAVCTPALRPPSPGPVLSQAPEDEGGSPEKGSPSLAWAPSAEGSIWSLELQGNLIVVGRSSGRLEVWDAIEGVLCCSSEEVSSGITALVFLDKRIVAARLNGSLDFFSLETHTALSPLQFRGTPGRGSSPASPVYSSSDTVACHLTHTVPCAHQKPITALKAAAGRLVTGSQDHTLRVFRLEDSCCLFTLQGHSGAITTVYIDQTMVLASGGQDGAICLWDVLTGSRVSHVFAHRGDVTSLTCTTSCVISSGLDDLISIWDRSTGIKFYSIQQDLGCGASLGVISDNLLVTGGQGCVSFWDLNYGDLLQTVYLGKNSEAQPARQILVLDNAAIVCNFGSELSLVYVPSVLEKLD [SCAP]	-0.105	53.4	52.8	-0.108	-0.535	0.3
MTMPVNGAHKDADLWSSHDKMLAQPLKDSDVEVYNIIKKESNRQRVGLELIASENFASRAVLEALGSCLNNKYSEGYPGQRYYGGTEFIDELETLCQKRALQAYKLDPQCWGVNVQPYSGSPANFAVYTALVEPHGRIMGLDLPDGGHLTHGFMTDKKKISATSIFFESMPYKVNPDTGYINYDQLEENARLFHPKLIIAGTSCYSRNLEYARLRKIADENGAYLMADMAHISGLVAAGVVPSPFEHCHVVTTTTHKTLRGCRAGMIFYRKGVKSVDPKTGKEILYNLESLINSAVFPGLQGGPHNHAIAGVAVALKQAMTLEFKVYQHQVVANCRALSEALTELGYKIVTGGSDNHLILVDLRSKGTDGGRAEKVLEACSIACNKNTCPGDRSALRPSGLRLGTPALTSRGLLEKDFQKVAHFIHRGIELTLQIQSDTGVRATLKEFKERLAGDKYQAAVQALREEVESFASLFPLPGLPDF [SHMT1]	0.366	58.2	58.2	-0.0876	-2.14	-2.12
MTSEVIEDEKQFYSKAKTYWKQIPPTVDGMLGGYGHISSIDINSSRKFLQRFLREGPNKTGTSCALDCGAGIGRITKRLLLPLFREVDMVDITEDFLVQAKTYLGEEGKRVRNYFCCGLQDFTPEPDSYDVIWIQWVIGHLTDQHLAEFLRRCKGSLRPNGIIVIKDNMAQEGVILDDVDSSVCRDLDVVRRIICSAGLSLLAEERQENLPDEIYHVYSFALR [NTMT1]	0.238	49.9	51.2	-0.15	1.31	1.61
MTSGATRYRLSCSLRGHELDVRGLVCCAYPPGAFVSVSRDRTTRLWAPDSPNRSFTEMHCMSGHSNFVSCVCIIPSSDIYPHGLIATGGNDHNICIFSLDSPMPLYILKGHKNTVCSLSSGKFGTLLSGSWDTTAKVWLNDKCMMTLQGHTAAVWAVKILPEQGLMLTGSADKTVKLWKAGRCERTFSGHEDCVRGLAILSETEFLSCANDASIRRWQITGECLEVYYGHTNYIYSISVFPNCRDFVTTAEDRSLRIWKHGECAQTIRLPAQSIWCCCVLDNGDIVVGASDGIIRVFTESEDRTASAEEIKAFEKELSHATIDSKTGDLGDINAEQLPGREHLNEPGTREGQTRLIRDGEKVEAYQWSVSEGRWIKIGDVVGSSGANQQTSGKVLYEGKEFDYVFSIDVNEGGPSYKLPYNTSDDPWLTAYNFLQKNDLNPMFLDQVAKFIIDNTKGQMLGLGNPSFSDPFTGGGRYVPGSSGSSNTLPTADPFTGAGRYVPGSASMGTTMAGVDPFTGNSAYRSAASKTMNIYFPKKEAVTFDQANPTQILGKLKELNGTAPEEKKLTEDDLILLEKILSLICNSSSEKPTVQQLQILWKAINCPEDIVFPALDILRLSIKHPSVNENFCNEKEGAQFSSHLINLLNPKGKPANQLLALRTFCNCFVGQAGQKLMMSQRESLMSHAIELKSGSNKNIHIALATLALNYSVCFHKDHNIEGKAQCLSLISTILEVVQDLEATFRLLVALGTLISDDSNAVQLAKSLGVDSQIKKYSSVSEPAKVSECCRFILNLL [PLAA]	-0.0389	49.5	50	-0.198	1.32	1.3

Source: the supplement of paper PMC5998384
